{"source": "patent US10548950B2", "about": "“Irisin-related cancer treatments” (STC.UNM, priority 2014, dated 2020)", "key": {"[1]": {"tested_on": "caspase-3/7 activity in MDA-MB-231 cells", "assay": "Caspase-3/7 activity (kinetic apoptosis reagent, Incucyte ZOOM)", "type": "cell-based, Human", "conditions": "MDA-MB-231, various concentrations, 24 hours", "description": "Cells were co-treated as previously described (N=12) with a kinetic caspase-3/7 apoptosis reagent from Essen Bioscience (Ann Arbor, Mich.). Caspase-3/7 activity was indicated by mean green fluorescence measured by the Incucyte ZOOM as described above."}, "MDA-MB-231 cells [2]": {"tested_on": "MDA-MB-231 cells", "assay": "Doxorubicin sensitivity: cell viability (WST-1) with Dox with or without irisin", "type": "cell-based, Human", "conditions": "24 hours", "protocol": "Cells were seeded overnight at a density of 5,000 cells/well, treated with or without varying concentrations of IM or INM (from 0.625 nM to 20 nM) (N=12). Cells were then incubated for 1 hour in medium containing 10% WST-1 cell proliferation reagent from Roche (Indianapolis, Ind.) and fluorescence was measured using a Wallac Victor3V 1420 Multilabel Counter from PerkinElmer (Waltham, Mass.). These methods were repeated with varying concentrations (from 0.156 μM to 10 μM) of the antineoplastic Doxorubicin (Dox) from Sigma (St. Louis, Mo.) dissolved in DMSO (using 0.1% for all treatments including control) with 2 nM IM or INM for 24 hours (N=8). At 24 hours, Dox uptake was measured using phase-contrast and fluorescence (N=24). Treatment concentrations and duration were determined empirically through pilot experiments and from previously published observations for Dox.^20"}, "MCF-10a cells": {"tested_on": "MCF-10a cells", "assay": "Cell viability (WST-1) after irisin treatment for 24 hours", "type": "cell-based, Human", "conditions": "0.625 nM to 20 nM, 24 hours post treatment", "protocol": "(§1) Human non-malignant breast epithelial cells (MCF-10a), malignant breast epithelial cells (MCF-7), and malignant aggressive breast epithelial cells (MDA-MB-231) were purchased from American Type Culture Collection (Manassas, Va.). Cells were maintained under standard conditions (37° C. in a 5% CO2) using growth media as described in Supporting Information Table 1. Cells were treated with either human recombinant non-modified irisin (INM) from Cayman Chemical (Ann Arbor, Mich.) or human recombinant modified and active (glycosylated) irisin (IM) from PlexBio (San Francisco, Calif.) at concentrations ranging from 0.625 nM to 20 nM dissolved in culture media for 24 hours. Concentrations of irisin were determined empirically through pilot experiments based on and previously published observations.^9 MDA-MB-231 cells were labeled with red fluorescent protein (RFP) by lentiviral-transfection using CytoLight Red vector from Essen Bioscience (Ann. Arbor, Mich.). […]\n(§2) Cells were seeded overnight at a density of 5,000 cells/well, treated with or without varying concentrations of IM or INM (from 0.625 nM to 20 nM) (N=12). Cells were then incubated for 1 hour in medium containing 10% WST-1 cell proliferation reagent from Roche (Indianapolis, Ind.) and fluorescence was measured using a Wallac Victor3V 1420 Multilabel Counter from PerkinElmer (Waltham, Mass.). […]"}, "MDA-MB-231 cells [3]": {"tested_on": "MDA-MB-231 cells", "assay": "Cell viability (WST-1) after irisin treatment for 24 hours", "type": "cell-based, Human", "conditions": "0.625 nM to 20 nM, compared with control", "protocol": "as §1, §2"}, "RFP MDA-MB-231 cells": {"tested_on": "RFP MDA-MB-231 cells", "assay": "Cell proliferation by automated red object counting (Incucyte ZOOM)", "type": "cell-based, Human", "conditions": "2 nM, 24 hours, compared with control", "protocol": "as §1\nRFP MDA-MB-231 cells were seeded overnight in 96-well plates at a density of 5,000 cells/well and treated with or without irisin at 2 nM (IM or INM) (N=64). Cell proliferation was measured by automated red object counting optimized for MDA-MB-231 cells using the Incucyte ZOOM live content imaging from Essen Bioscience (Ann Arbor, Mich.), measured every hour for 24 hours. […]"}, "[4]": {"tested_on": "NFκB activity in MDA-MB-231 cells", "assay": "NFκB-GFP reporter system", "type": "cell-based, Human", "conditions": "MDA-MB-231, 24 hours", "protocol": "Cells were transfected with a NFκB GFP-linked reporter system from Qiagen (Valencia, Calif.) before treatment with IM, INM, or TNF-α from R and D Systems (Minneapolis, Minn.) at various concentrations for 24 hours (N=12). NFκB activity was indicated by mean fluorescence measured by the Incucyte ZOOM as described above."}, "[5]": {"tested_on": "malignant and non-malignant breast epithelial cell", "assay": "Cell metabolism (data not shown)", "type": "cell-based, Human", "conditions": "malignant and non-malignant cells"}, "[6]": {"tested_on": "obesity-related cancer cells", "conditions": "Moon et al., MTT endpoint assay; cited from earlier work"}}, "data": [{"molecule": "TNF-α [reference compound]", "values": [{"measurement": "Caspase-3/7 activity", "setting": "[1]", "value": "significantly elevated"}]}, {"molecule": "COc1cccc2c1C(=O)c1c(O)c3c(c(O)c1C2=O)C[C@@](O)(C(=O)CO)C[C@@H]3O[C@H]1C[C@H](N)[C@H](O)[C@H](C)O1", "note": "[Dox, Doxorubicin, reference compound]", "values": [{"measurement": "Cell viability, Dox treatment alone", "setting": "MDA-MB-231 cells [2]; MDA-MB-231, Dox 100 nM or 1.0 μM", "value": "not"}, {"measurement": "Cell viability, Dox treatment alone", "setting": "MDA-MB-231 cells [2]; MDA-MB-231, Dox 10 μM", "value": "reduced cell viability"}]}, {"molecule": "IM: human recombinant modified and active (glycosylated) irisin from PlexBio (protein, UniProt Q8NAU1 1-191, looked up, Irisin glycosylated) Irisin: MQAARGGAGRPERPGRPGRGPERERERPPGAGAASPCAAPGLPAGGATIHPGSPSAWPPRARAALRLWLGCVCFALVQADSPSAPVNVTVRHLKANSAVVSWDVLEDEVVIGFAISQQKKDVRMLRFIQEVNTTTRSCALWDLEEDTEYIVHVQAISIQGQSPASEPVLFKTPREAEKMASKNKDEVTMKE", "values": [{"measurement": "Cell viability of MCF-10a cells", "setting": "MCF-10a cells", "value": "decreased at the highest tested dose"}, {"measurement": "Cell viability of MDA-MB-231 cells", "setting": "MDA-MB-231 cells [3]", "value": "unaffected"}, {"measurement": "Cell proliferation of MDA-MB-231 cells", "setting": "RFP MDA-MB-231 cells", "value": "did not alter cell proliferation"}, {"measurement": "Caspase-3/7 activity", "setting": "[1]", "value": "failed to activate caspase-3/7 activity"}, {"measurement": "NFκB activity", "setting": "[4]", "value": "did not alter NFκB activity"}, {"measurement": "Enhancement of Dox killing by irisin", "setting": "MDA-MB-231 cells [2]; MDA-MB-231, 2 nM irisin with Dox 100 nM to 10 μM", "value": "significantly enhanced Dox killing at 1.0 μM"}]}, {"molecule": "irisin: 112 aa peptide cleaved from FNDC5; term covers both non-modified (INM) and glycosylated (IM) irisin (protein, non-modified irisin, 112 aa peptide cleaved from FNDC5; term covers both non-modified (INM) and glycosylated (IM) irisin) DSPSAPVNVTVRHLKANSAVVSWDVLEDEVVIGFAISQQKKDVRMLRFIQEVNTTTRSCALWDLEEDTEGIVHVQAISIQGQSPASEPVLFKTPREAEKMASKNKDEVTMKE", "values": [{"measurement": "Breast epithelial cell metabolism", "setting": "[5]", "value": "not significantly altered"}, {"measurement": "Cell proliferation in obesity-related cancer cells", "setting": "[6]", "value": "no significant affect on cell proliferation"}]}]}
